According to patent US20110158985A1:
Substitutions are numbered along the chain they refer to.

Substrate: F protein of RSV (Long strain) (RSV (Long strain)) (UniProt P12568)
Assay: cell-based or functional assay

Chain of F protein of RSV (Long strain) (RSV (Long strain)) (P12568 26-574): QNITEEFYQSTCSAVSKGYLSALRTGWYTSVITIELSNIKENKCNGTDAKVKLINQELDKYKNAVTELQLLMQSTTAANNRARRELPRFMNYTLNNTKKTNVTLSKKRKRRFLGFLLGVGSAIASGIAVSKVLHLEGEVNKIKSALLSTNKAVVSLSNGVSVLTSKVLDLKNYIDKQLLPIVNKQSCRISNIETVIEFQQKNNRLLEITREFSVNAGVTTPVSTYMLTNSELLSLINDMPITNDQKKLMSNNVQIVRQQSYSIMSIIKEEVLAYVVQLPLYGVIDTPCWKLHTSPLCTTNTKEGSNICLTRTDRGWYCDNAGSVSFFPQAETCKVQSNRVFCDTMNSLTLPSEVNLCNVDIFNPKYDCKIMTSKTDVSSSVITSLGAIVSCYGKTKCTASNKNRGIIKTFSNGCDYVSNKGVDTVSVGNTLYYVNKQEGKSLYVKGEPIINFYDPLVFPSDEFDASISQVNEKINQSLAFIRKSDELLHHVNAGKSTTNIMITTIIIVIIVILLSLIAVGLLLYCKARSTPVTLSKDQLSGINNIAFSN

B1: P12f4 Fab (Fab, V domains shown)
VH: QVTLRESGPALVKPTQTLTLTCTFSGFSLSTPGMSVGWIRQPPGKALEWLADIWWDGKKHYNPSLKDRLTISKDTSKNQVVLKVTNMDPADTATYYCARDMIFNFYFDVWGQGTTVTVSS
VL: DIQMTQSPSTLSASVGDRVTITCSLSSRVGYMHWYQQKPGKAPKLLIYDTRGLPSGVPSRFSGSGSGTEFTLTISSLQPDDFATYYCFQGSGYPFTFGGGTKVEIK
Question: What does the source list for B1?
Answer: IC50: 0.7 nM; Mean IC50 (Control): 0.0351 µg/mL; Mean IC50 (Curve): 0.0464 µg/mL

B2: A1h5 Fab (Fab, V domains shown)
VH: B1 VH with P32A, F105W
VL: B1 VL with R28S, R51F, G52F, L53H, P54R
Question: Which results are given for B2?
Answer: Mean IC50 (Control): 0.176 µg/mL; Mean IC50 (Curve): 0.194 µg/mL
